For the experiment, the target named is T1, human mature TGFβ1 growth factor (human, UniProt P01137 279-390).
T1 construct: Bought from R&D Systems; also called active (mature) TGFβ1 growth factor; free TGFβ1 growth factor
The experiment is described as follows: in vitro binding assay.

T1 sequence (P01137 279-390 limits assumed): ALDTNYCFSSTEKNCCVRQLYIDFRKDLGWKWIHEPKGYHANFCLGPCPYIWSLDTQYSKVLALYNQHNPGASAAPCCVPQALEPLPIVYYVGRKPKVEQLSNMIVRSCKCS

B1: Ab6 (antibody, human IgG4 S228P, kappa, V domains shown)
VH: EVQLVESGGGLVQPGGSLRLSCTASGFTFSSFSMDWVRQAPGKGLEWVSYISPSADTIYYADSVKGRFTISRDNAKNTLYLQMNSLRAEDTAVYYCARGVLDYGDMLMPWGQGTLVTVSS
VL: DIQMTQSPSSLSASVGDRVTITCQASQDITNYLNWYQQKPGKAPKLLIYDASNLETGVPSRFSGSGSGTDFTFTISSLQPEDIATYYCQQADNHPPWTFGGGTKVEIKR
Take B1: the binding result is given as “no binding”.

Values taken from patent US20220064275A1 (SCHOLAR ROCK, published 2022).
